This is an account of results in US20240158497A1 (published 2024).

For test [1], the target named is T1, human GP130 extracellular domain expressed with a C-terminal myc-myc-hexahistidine tag (human, UniProt P40189 23-619).
T1 construct: monomeric; also called hGP130-mmH; hGP130-MMH
Nature of the test: SPR 25C, mAb captured, hGP130-MMH injected. How it is done:
(§1) Equilibrium dissociation constant (KD) for different GP130 reagents binding to purified anti-GP130 monoclonal antibodies were determined using a real-time surface plasmon resonance based Biacore 4000 biosensor. All binding studies were performed in 10 mM HEPES, 150 mM NaCl, 3 mM EDTA, and 0.05% v/v Surfactant Tween-20, pH 7.4 (HBS-ET) running buffer at 25° C. and 37° C. The Biacore sensor surface was first derivatized by amine coupling with a monoclonal mouse anti-human Fc antibody (GE, #BR-1008-39) to capture anti-GP130 monoclonal antibodies. […] Reagents tagged with “mmH” are monomeric, whereas reagents tagged with “mFc” are dimeric. Thus, for example, “hGP130-mmH” is also referred to as “monomeric human GP130,” and “hGP130-mFc” is also referred to as “dimeric human GP130.”
(§2) The association rate (k a) and dissociation rate (kd) were determined by fitting the real-time binding sensorgrams to a 1:1 binding model with mass transport limitation using Scrubber 2.0c curve-fitting software. Binding dissociation equilibrium constant (KD) and dissociative half-life (t ½) were calculated from the kinetic rates as: […]

The target in test [2] is T2, mouse GP130 extracellular domain expressed with a C-terminal myc-myc-hexahistidine tag (mouse, UniProt Q00560 23-617).
T2 construct: monomeric; also called mGP130-mmH; mGP130-MMH
Nature of the test: SPR. How it is done: as §1, §2

The target of test [3] is T3, human GP130 delta D1-D3 expressed with a C-terminal myc-myc hexahistidine tag (human, UniProt P40189 329-619).
T3 construct: CHO supernatant, captured on anti-myc microspheres; also called human GP130 delta D1-D3-MMH
Nature of the test: Luminex, myc-captured antigen. How it is done: (§3) Aliquots of microspheres with immobilized anti-myc monoclonal antibodies, prepared as described above, were added individually to 1 mL of the each of these protein supernatants and to 500 uL of purified GP130 protein. The microspheres were gently mixed, incubated for two hours at 25° C., washed twice with 1 mL of DBPS, centrifuged to remove the supernatant and finally resuspended in 1 mL of DPBS buffer. Forty eight μL of anti-myc IgG coupled microspheres from individual reactions with full length human GP130 and with each of the human GP130 domain proteins were withdrawn and mixed together in 3.6 mL of PBS+20 mg/mL BSA+0.05% sodium azide (blocking buffer).
(§4) From this mixed pool, 75 μL of microspheres were plated per well on a 96 well filter plate (Millipore, Cat. No: MSBVN1250) and mixed with 25 μL of individual anti-human GP130 monoclonal antibodies (0.5 or 5 μg/mL), incubated for two hours at 25° C. and then washed twice with 200 μL of DPBS with 0.05% Tween 20 (washing buffer). To detect and quantify the amounts of bound anti-GP130 antibody levels to individual microspheres, either 100 μL of 2.5 μg/mL R-Phycoerythrin conjugated goat F(ab′)2 anti-human kappa (Southern Biotech, Cat #2063-09) in blocking buffer, was added and incubated for 30 minutes at 25° C. After 30 minutes, the samples were washed twice with 200 μL of washing buffer and resuspended in 150 μL of wash buffer. The Median Fluorescence intensity (MFI) of the microspheres was measured in a Luminex Analyzer.

Test [4] concerns the target T4, human GP130 delta D1 expressed with a C-terminal myc-myc hexahistidine tag (human, UniProt P40189 124-619).
T4 construct: CHO supernatant, captured on anti-myc microspheres; also called human GP130 delta D1-MMH
Nature of the test: Luminex, myc-captured antigen. How it is done:
as §3, §4

T3 sequence (P40189 other isoform, or with tags, fused parts or gaps mutant limits assumed): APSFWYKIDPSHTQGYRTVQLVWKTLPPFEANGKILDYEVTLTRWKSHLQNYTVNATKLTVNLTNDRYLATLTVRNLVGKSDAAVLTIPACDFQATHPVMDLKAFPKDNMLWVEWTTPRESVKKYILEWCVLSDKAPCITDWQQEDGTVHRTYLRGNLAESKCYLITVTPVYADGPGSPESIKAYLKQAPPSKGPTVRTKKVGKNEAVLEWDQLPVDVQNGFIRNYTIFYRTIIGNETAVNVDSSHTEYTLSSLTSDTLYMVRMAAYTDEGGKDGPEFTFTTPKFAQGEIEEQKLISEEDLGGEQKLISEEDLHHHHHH
T2 sequence (Q00560 other isoform, or with tags, fused parts or gaps): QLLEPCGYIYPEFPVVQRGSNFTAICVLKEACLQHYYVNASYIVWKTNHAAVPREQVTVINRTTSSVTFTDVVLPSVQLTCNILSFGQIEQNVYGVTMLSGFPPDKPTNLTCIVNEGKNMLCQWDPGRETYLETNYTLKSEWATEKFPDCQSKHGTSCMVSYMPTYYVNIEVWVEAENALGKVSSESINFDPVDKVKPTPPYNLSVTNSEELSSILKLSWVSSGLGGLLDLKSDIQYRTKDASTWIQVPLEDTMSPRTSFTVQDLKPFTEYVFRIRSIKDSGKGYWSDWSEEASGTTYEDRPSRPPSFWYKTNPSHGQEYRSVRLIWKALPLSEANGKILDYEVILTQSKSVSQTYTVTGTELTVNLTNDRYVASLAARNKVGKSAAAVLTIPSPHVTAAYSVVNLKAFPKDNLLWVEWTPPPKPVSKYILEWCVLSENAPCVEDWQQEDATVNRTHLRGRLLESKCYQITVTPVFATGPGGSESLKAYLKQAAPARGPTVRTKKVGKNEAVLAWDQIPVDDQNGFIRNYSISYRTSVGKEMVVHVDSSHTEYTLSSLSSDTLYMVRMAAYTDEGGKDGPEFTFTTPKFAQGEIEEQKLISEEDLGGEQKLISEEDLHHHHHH
T1 sequence (P40189 other isoform, or with tags, fused parts or gaps): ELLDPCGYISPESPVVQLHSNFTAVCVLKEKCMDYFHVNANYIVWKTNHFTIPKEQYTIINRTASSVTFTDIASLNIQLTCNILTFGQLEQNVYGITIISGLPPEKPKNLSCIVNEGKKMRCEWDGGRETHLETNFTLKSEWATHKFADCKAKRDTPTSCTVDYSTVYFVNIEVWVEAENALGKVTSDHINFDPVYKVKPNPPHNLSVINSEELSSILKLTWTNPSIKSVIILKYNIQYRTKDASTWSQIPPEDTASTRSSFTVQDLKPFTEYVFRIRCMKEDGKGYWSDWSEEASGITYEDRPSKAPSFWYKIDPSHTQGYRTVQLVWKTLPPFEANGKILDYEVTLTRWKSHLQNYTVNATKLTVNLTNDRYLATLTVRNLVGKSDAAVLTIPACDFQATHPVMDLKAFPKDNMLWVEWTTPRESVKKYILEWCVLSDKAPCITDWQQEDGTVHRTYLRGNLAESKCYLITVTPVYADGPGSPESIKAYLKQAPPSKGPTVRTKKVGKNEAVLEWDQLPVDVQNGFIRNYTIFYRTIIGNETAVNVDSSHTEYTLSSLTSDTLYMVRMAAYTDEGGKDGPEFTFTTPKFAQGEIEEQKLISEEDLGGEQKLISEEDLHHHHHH
T4 sequence (P40189 other isoform, or with tags, fused parts or gaps mutant limits assumed): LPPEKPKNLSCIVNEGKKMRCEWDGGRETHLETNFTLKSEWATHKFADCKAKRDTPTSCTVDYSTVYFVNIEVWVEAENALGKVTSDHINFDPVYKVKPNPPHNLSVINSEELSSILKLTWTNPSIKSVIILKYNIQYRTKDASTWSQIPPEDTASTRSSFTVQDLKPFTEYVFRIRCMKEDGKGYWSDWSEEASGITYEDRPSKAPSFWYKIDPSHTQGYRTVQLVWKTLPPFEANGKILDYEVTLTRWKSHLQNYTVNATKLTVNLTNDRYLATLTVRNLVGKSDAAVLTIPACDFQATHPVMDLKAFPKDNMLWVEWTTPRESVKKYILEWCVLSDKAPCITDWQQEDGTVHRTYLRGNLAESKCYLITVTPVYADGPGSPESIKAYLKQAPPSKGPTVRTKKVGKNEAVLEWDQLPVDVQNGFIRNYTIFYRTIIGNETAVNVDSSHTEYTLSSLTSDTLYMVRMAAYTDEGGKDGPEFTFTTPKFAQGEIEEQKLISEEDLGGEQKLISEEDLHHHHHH

B1: MAb16659 (antibody, V domains shown)
VH: QVQLVQSGPEVKKPGSSVKVSCKASGGTIDRNEITWVRQAPGQGLEWMGVIIPILGEAHYERKFQGRLTITMDESTSTAYMELSNLRSEDTAVYYCARERAARGYLDYWGQGTLVTVSS
VL: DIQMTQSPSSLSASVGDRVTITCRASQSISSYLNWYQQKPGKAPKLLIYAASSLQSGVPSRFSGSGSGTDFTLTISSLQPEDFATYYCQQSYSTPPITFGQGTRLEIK
A word on the Kd: it is the constant that tells how readily two partners part at equilibrium. Usually koff stands for the rate constant with which the complex falls apart. A lower koff goes with slow dissociation. A word on the kon: it is the second-order rate constant of association. Read a low kon as slower complex formation. The t½ is how long it takes for the measured level to halve. A higher t½ goes with slow loss. For the molecule B1, in test [1], the “100 nM Ag Bound (RU)” value came out at 77 RU, the Kd is 0.663 nM, the koff was 0.000459 s⁻¹ and the kon worked out at 693000 M⁻¹ s⁻¹. Moreover, the t½ in test [1] is 25 min. Moreover, in test [2], the binding result is “no binding (tested: 100 nM)”. In test [3], the binding result is “no binding (tested: 0.5 or 5 µg/mL)”. Moreover, the binding result in test [4] is listed as “no binding (tested: 0.5 or 5 µg/mL)”.

B2: MAb16676 (antibody, V domains shown)
VH: QVQLVQSGAEVMKPGASVKVSCRASGYTFSSYDINWVRQAPGQGLEWMGWISTATGNTNYPQKVQGRVTMTTDTSTNTAYMELRSLRSDDTAVYYCTREGNSKGWLDPWGQGTLVTVSS
VL: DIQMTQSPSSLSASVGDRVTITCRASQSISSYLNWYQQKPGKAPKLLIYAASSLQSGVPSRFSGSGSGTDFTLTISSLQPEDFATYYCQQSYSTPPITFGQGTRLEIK
As for B2, in test [1], the “100 nM Ag Bound (RU)” value worked out at 51 RU; the affinity, expressed as Kd, was 2.19 nM; the koff was 0.000631 s⁻¹; the kon came out at 287000 M⁻¹ s⁻¹. Further, in test [1], the t½ is 18 min. Moreover, the binding result in test [2] was “no binding (tested: 100 nM)”. For the same molecule, in test [3], the binding result was “no binding (tested: 0.5 or 5 µg/mL)”. In test [4], the binding result is “no binding (tested: 0.5 or 5 µg/mL)”.

B3: MAb16664 (antibody, V domains shown)
VH: QVQLVQSGTEVKKPGSSVKVSCKASGGTFSTYPINWVRQAPGQGLEWMGGIIPIFGTASYAQKFQGRVAITTDESTSTAYMELNSLRSEDTAVYYCARERPNWGSNDYWGQGTLVTVSS
VL: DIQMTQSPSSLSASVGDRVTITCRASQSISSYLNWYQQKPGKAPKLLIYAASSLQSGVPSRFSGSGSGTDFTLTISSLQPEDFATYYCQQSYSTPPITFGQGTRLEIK
Consider B3, for which, in test [1], the “100 nM Ag Bound (RU)” value amounted to 14 RU, the Kd came to 2.35 nM, the koff is 0.00164 s⁻¹ and the kon amounted to 698000 M⁻¹ s⁻¹. Besides, the t½ in test [1] is 7 min. The binding result in test [2] is “no binding (tested: 100 nM)”. Besides, in test [3], the binding result is listed as “no binding (tested: 0.5 or 5 µg/mL)”. Further, in test [4], the binding result is “no binding (tested: 0.5 or 5 µg/mL)”.

B4: MAb16682 (antibody, V domains shown)
VH: EVQLVESGGGLVQPGGSLRLSCAASGFTFSTYWMNWVRQAPGKGLEWVANIKEDGSEKYYVDSVKGRFTISRDNAKNSLYLQMNSLRAEDTAVYYCAREGFGVVTYIWGQGTMVTVSS
VL: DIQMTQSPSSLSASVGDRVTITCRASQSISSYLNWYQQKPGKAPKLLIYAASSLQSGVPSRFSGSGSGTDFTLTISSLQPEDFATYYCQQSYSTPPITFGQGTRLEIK
In the case of B4, in test [1], the “100 nM Ag Bound (RU)” value amounted to 21 RU, the Kd is 136 nM, the koff was found to be 0.0164 s⁻¹ and the kon is 121000 M⁻¹ s⁻¹. This molecule gave a t½ in test [1] of 0.7 min. Also, the binding result in test [2] is on record as “no binding (tested: 100 nM)”. In test [3], the binding result is “no binding (tested: 0.5 or 5 µg/mL)”.

B5: MAb16662 (antibody, V domains shown)
VH: EVQLVESGGGLVQPGGSLRLSCTASGFTFSNYAIFWVRQAPGKGLEYVSGISNNGVTKYYADSVRDRFTISRDNSRNTVSIQMDSLRTEDMAVYYCARENWGSDDGFDIWGQGTMVTVSS
VL: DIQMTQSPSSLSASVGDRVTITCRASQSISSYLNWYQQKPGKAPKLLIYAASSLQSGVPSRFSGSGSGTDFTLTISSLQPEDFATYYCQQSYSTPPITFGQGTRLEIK
With B5, in test [1], the “100 nM Ag Bound (RU)” value was 22 RU, binding was characterised by a dissociation constant (Kd) of 123 nM, the koff was 0.029 s⁻¹ and the kon was determined as 235000 M⁻¹ s⁻¹. In test [1], the t½ came to 0.4 min. The binding result in test [2] is “no binding (tested: 100 nM)”. In addition, the binding result in test [3] is reported as “no binding (tested: 0.5 or 5 µg/mL)”.

B6: MAb16665 (antibody, V domains shown)
VH: QVQLVESGGGVVQPGRSLRLACAASGFTFRSYGMHWVRQAPGKGLEWVAVIWYDGSNKYYTDSVKGRFTISRDNSKNTLYLQMNSLRAEDTAMYYCAIDKWATVTTYLFDYWGQGTLVTVSS
VL: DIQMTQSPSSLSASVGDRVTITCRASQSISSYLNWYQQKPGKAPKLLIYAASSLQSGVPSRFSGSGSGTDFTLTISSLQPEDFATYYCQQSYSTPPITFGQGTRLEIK
Consider B6, for which, in test [1], the “100 nM Ag Bound (RU)” value amounted to 20 RU, the dissociation constant Kd was determined as 411 nM, the dissociation rate constant (koff) was 0.0473 s⁻¹ and the kon amounted to 115000 M⁻¹ s⁻¹. The t½ in test [1] is 0.2 min. Besides, in test [2], the binding result was “no binding (tested: 100 nM)”. The binding result in test [3] is listed as “no binding (tested: 0.5 or 5 µg/mL)”. The binding result in test [4] was “no binding (tested: 0.5 or 5 µg/mL)”.

B7: MAb16637 (antibody, V domains shown)
VH: QVQLVQSGAEVKKPGASVKVSCKASGYTFTSLGISWVRQAPGQGLEWMGWISAYSGNRDYAQKFQGRVTMTTDTSTSTAYMELRSLRSDDTAVYYCARSLRFDYWGQGTLVTVSS
VL: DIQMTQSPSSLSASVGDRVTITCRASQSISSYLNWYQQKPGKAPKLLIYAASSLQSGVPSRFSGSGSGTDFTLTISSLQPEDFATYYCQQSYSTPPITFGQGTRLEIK
With B7, in test [1], the “100 nM Ag Bound (RU)” value was 91 RU, the Kd came out at 15.5 nM, the koff came to 0.0011 s⁻¹ and the on-rate constant (kon) was determined as 71100 M⁻¹ s⁻¹. This molecule also came in with a t½ in test [1] of 10 min. The binding result in test [2] is recorded as “no binding (tested: 100 nM)”. Moreover, in test [3], the binding result is on record as “no binding (tested: 0.5 or 5 µg/mL)”. The binding result in test [4] is reported as “no binding (tested: 0.5 or 5 µg/mL)”.

B8: MAb16666 (antibody, V domains shown)
VH: EVQLVESGGGLVQSGGSLRLSCAASGFTFSRYEMNWVRQAPGKGLEWVAYISNTGTTRDYSDSVKGRFTISRDNAKNSLYLQMSSLRVEDTAVYYCVREKFSGTSDWFDPWGQGTLVTVSS
VL: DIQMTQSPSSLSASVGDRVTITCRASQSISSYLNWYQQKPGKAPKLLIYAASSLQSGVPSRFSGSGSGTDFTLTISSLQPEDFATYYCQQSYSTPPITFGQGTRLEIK
Turning to B8, in test [1], the “100 nM Ag Bound (RU)” value stood at 138 RU, the Kd was 14.4 nM, the koff came to 0.00456 s⁻¹ and the kon came to 317000 M⁻¹ s⁻¹. Besides, the t½ in test [1] was found to be 3 min. Moreover, in test [2], the binding result is on record as “no binding (tested: 100 nM)”. The binding result in test [3] is reported as “no binding (tested: 0.5 or 5 µg/mL)”.

B9: MAb16656 (antibody, V domains shown)
VH: EVQLVESGGGLVQPGRSLRLSCAASGFTLDDFAMHWVRQAPGKGLEWVSGISWNSGNIGYADSVKGRFTISRDNARNSLYLQMNSLRAEDTALYYCTSGYYLYYAMDVWGQGTTVTVSS
VL: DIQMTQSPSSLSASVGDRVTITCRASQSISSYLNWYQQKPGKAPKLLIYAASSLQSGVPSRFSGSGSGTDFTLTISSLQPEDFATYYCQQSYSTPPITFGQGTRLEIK
As to B9, in test [1], the “100 nM Ag Bound (RU)” value worked out at 44 RU, binding was put at a Kd of 23 nM, the koff was 0.000825 s⁻¹ and the kon is 35900 M⁻¹ s⁻¹. The t½ in test [1] is 14 min. Moreover, the binding result in test [2] is given as “no binding (tested: 100 nM)”. Further, in test [3], the binding result was “no binding (tested: 0.5 or 5 µg/mL)”. For the same molecule, the binding result in test [4] is given as “no binding (tested: 0.5 or 5 µg/mL)”.

B10: MAb16673 (antibody, V domains shown)
VH: EVQLVQSGAEVKKPGESLKISCKGSGYSFTSYWIDWVRQMPGKGLEWMGIIYPDDSDTRYSPSFQGQVTMSVDKSISTAYLQWSSLKASDTAIYYCARHERGIVEAGTDYYYYYGMDVWGQGTTVTVSS
VL: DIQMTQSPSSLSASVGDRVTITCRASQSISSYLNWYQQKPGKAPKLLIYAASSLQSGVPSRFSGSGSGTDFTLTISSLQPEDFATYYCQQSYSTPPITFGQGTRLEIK
Regarding B10, in test [1], the “100 nM Ag Bound (RU)” value was 58 RU, binding was characterised by a dissociation constant (Kd) of 65.5 nM, the off-rate constant (koff) came to 0.0141 s⁻¹ and the kon came out at 215000 M⁻¹ s⁻¹. Moreover, the t½ in test [1] amounted to 0.8 min. Besides, in test [2], the binding result is “no binding (tested: 100 nM)”. Besides, the binding result in test [3] was “no binding (tested: 0.5 or 5 µg/mL)”.

B11: MAb16636 (antibody, V domains shown)
VH: QLQLQESGPGLVKPSETLSLICTVSGGSISSNNYYWGWIRQPPGKGLEWIGNLYGSGSTYYNPSLKSRVTISVDTSKNQFSLKLSFVTAADTAVYHCARWDTNGGAFDIWGQGTMVTVSS
VL: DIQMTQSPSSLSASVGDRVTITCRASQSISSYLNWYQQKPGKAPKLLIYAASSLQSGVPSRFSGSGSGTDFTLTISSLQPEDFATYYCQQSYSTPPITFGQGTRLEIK
For B11, in test [1], the “100 nM Ag Bound (RU)” value worked out at 37 RU, the Kd is 36.8 nM, the koff was 0.000993 s⁻¹ and the kon is 27000 M⁻¹ s⁻¹. Also, the t½ in test [1] amounted to 12 min. The binding result in test [2] is given as “no binding (tested: 100 nM)”. Also, in test [3], the binding result was “no binding (tested: 0.5 or 5 µg/mL)”.
